{"source": "patent US20210292730", "proteins": {"B1": {"name": "plant produced recombinant human Furin (truncated form, pEAQ-Furin (truncated)-His6-KDEL, produced in N. benthamiana) (protein)", "chain": "QGQKVFTNTWAVRIPGGPAVANSVARKHGFLNLGQIFGDYYHFWHRGVTKRSLSPHRPRHSRLQREPQVQWLEQQVAKRRTKRDVYQEPTDPKFPQQWYLSGVTQRDLNVKAAWAQGYTGHGIVVSILDDGIEKNHPDLAGNYDPGASFDVNDQDPDPQPRYTQMNDNRHGTRCAGEVAAVANNGVCGVGVAYNARIGGVRMLDGEVTDAVEARSLGLNPNHIHIYSASWGPEDDGKTVDGPARLAEEAFFRGVSQGRGGLGSIFVWASGNGGREHDSCNCDGYTNSIYTLSISSATQFGNVPWYSEACSSTLATTYSSGNQNEKQIVTTDLRQKCTESHTGTSASAPLAAGIIALTLEANKNLTWRDMQHLVVQTSKPAHLNANDWATNGVGRKVSHSYGYGLLDAGAMVALAQNWTTVAPQRKCIIDILTEPKDIGKRLEVRKTVTACLGEPNHITRLEHAQARLTLSYNRRGDLAIHLVSPMGTRSTLLAARPHDYSADGFNDWAFMTTHSWDEDPSGEWVLEIENTSEANNYGTLTKFTLVLYGTAPEGLPVPPESSGCKTLTSSQAHHHHHHKDEL"}}, "molecular_target": "T1, Recombinant murine APRIL (Sigma SRP3189-20UG), Q9D777", "T1 chain": "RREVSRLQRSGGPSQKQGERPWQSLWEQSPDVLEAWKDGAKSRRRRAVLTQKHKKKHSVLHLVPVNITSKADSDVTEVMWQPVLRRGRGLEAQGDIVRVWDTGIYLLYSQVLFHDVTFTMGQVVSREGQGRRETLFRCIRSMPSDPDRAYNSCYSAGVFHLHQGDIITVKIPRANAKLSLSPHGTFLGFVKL", "data": [{"protein": "B1", "values": [{"measurement": "in vitro cleavage of 5 µg APRIL by 25 ng Furin, 25° C., 1 h, SDS-PAGE", "result": "recombinant APRIL protein is cleaved by both plant produced human Furin (25ng) or commercial Furin (25 ng) and 16.8 kDa fragment was generated"}]}]}
